Assay results taken from publication PMC6761861 (Chemical Science, 2019).
Like-named read-outs stand apart in the source and are kept apart here. No end group written: not given here.

Tests used:
[1] = test system: NF-κB activity (LMP-1) in EBV positive B721 cells; conditions: read-out: IC50, inhibition of B721 cell NF-κB activity; cited from earlier work
[2] = molecular target: TMD5 (coumarin-labelled) (Epstein-Barr virus, UniProt P03230); assay: FRET assay; type: binding
[3] = test system: TMD5/TMD5 interaction (TMD5–ToxR); assay: Dominant-negative ToxR assay in bacterial membranes; type: cell-based, Epstein–Barr virus; conditions: co-expressed as ToxR* fusion with TMD5–ToxR in E. coli FHK12; result in words
[4] = molecular target: coumarin-labelled LMP-1 transmembrane domain 5 (TMD5) peptide (Epstein-Barr virus); assay: FRET or BRET
[5] = molecular target: coumarin-labelled LMP-1 transmembrane domain 5 (TMD5) peptide (Epstein-Barr virus); assay: FRET or BRET; remark: listed apart in the source
[6] = molecular target: coumarin-labelled LMP-1 transmembrane domain 5 (TMD5) peptide (Epstein-Barr virus); assay: other fluorescence titration

N=C(N)c1ccc(C=Cc2ccc(C(=N)N)cc2O)cc1 [NSC259242]
IC50 [1]: 29.6 ± 6.6 µM

KKKKWWKLWYFLVWFLDLIILILLLWWKKKK [anti-TMD5]
Kd [2]: 0.04 ± 0.0067 µM

KKKK-VFLWLWLIWIFIDWKLWLLYWLL-KKKK [anti-TMD5 scramble]
quenching of TMD5-coumarin fluorescence and FRET signal compared to anti-TMD5 ([2]; 1.0 mM C14 betaine micelles, 20 mM HEPES, pH 7.4, result in words): much less quenching of TMD5-coumarin fluorescence and weaker FRET signal from FITC emission
effect on TMD5 Miller unit [3]: did not inhibit the TMD5 Miller unit

WWKLWYFLVWFLDLIILILLLWW (designed binder, also: FITC label, position not given here) [FITC-tagged anti-TMD5 peptide]
Kd [4]: 40 µM
stoichiometry N [4]: 0.44
Kd [5]: 0.0678 µM
stoichiometry N [5]: 0.53

WWKLWYFLVWFLDLIILILLLWW (designed binder) [anti-TMD5 peptide (unlabelled)]
EC50 [6]: 3.3 µM
